Data set [1] has as its target T1, AsCas12f1 (Acidibacillus sulfuroxidans, UniProt A0A2U3D0N8 1-422).
T1 sequence: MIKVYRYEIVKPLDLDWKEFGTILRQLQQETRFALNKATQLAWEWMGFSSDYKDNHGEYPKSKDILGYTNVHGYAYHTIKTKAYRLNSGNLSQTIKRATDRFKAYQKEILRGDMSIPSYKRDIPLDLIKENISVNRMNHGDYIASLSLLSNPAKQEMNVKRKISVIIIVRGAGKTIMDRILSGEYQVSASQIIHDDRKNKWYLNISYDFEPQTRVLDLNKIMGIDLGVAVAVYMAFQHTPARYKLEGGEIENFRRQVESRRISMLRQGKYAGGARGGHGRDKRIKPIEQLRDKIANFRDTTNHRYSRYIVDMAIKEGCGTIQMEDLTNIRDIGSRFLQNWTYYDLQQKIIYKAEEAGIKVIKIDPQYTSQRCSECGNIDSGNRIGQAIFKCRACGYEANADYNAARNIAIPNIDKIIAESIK
Nature of the data set: smFRET; crRNA-tracrRNA; binding then cleavage, E ~0.5; Assay buffers not in the material; duplexes annealed in 20 mM Tris-HCl pH 8.0, 50 mM NaCl; smFRET with 1-10 mM Mg2+. The note with it: protein: recombinant; tags: N-terminal His6-SUMO, removed by HRV3C; chain copies: 2; label: iCy3dT (+34) and 3' biotin on NTS; 3' Cy5 on crRNA; strands: TS/NTS/crRNA/tracrRNA; DNA blunt; crRNA 3' 20 nt pairs with TS.

The target in data set [2] is T1, AsCas12f1. Nature of the data set: smFRET; partially matched guide/target (16-20mm); low E 0.2-0.4, partial hybridization; Assay buffers not in the material; duplexes annealed in 20 mM Tris-HCl pH 8.0, 50 mM NaCl; smFRET with 1-10 mM Mg2+. To be noted: protein: recombinant; tags: N-terminal His6-SUMO, removed by HRV3C; chain copies: 2; label: iCy3dT and 3' biotin on NTS; 3' Cy5 on crRNA; strands: TS/NTS/crRNA/tracrRNA; DNA blunt; guide mismatched at positions 16-20.

Positions count from the first letter of the chain named.

B1: smFRET target DNA with crRNA/tracrRNA (mixed)
DNA 1: ACGCACCAGAAACGAAGGCTACGTCCAGGAGCGCACCATCTTCTTCAAGGAATACAAACAAGCTAAGCACAACGTCGTCT
DNA 2: AGACGACGTTGTGCTTAGCTTGTTTGTATTCCTTGAAGAAGATGGTGCGCTCCTGGACGTAGCCTTCGTTTCTGGTGCGT
RNA 1: GUUUGCGAGCUAGCUUGUGGAGUGUGAACUAUUCCUUGAAGAAGAUGGU
RNA 2: GGAUUCGUCGGUUCAGCGACGAUAAGCCGAGAAGUGCCAAUAAAACUGUUAAGUGGUUUGGUAACGCUCGGUAAGGUAGCCAAAAGGCUGAAACUCCGUGCACAAAGACCGCACGGACGCUUCACAUAUAGCUCAUAAAC
In the case of B1, the binding result with AsCas12f1 [1] is “binds”.

B2: Protospacer 16-20mm DNA with crRNA/tracrRNA (mixed)
DNA 1: B1 DNA 1 with A35G, C36T, C37A, A38C, T39G
DNA 2: B1 DNA 2 with A42C, T43G, G44T, G45A, T46C
RNA 1: B1 RNA 1
RNA 2: B1 RNA 2
Turning to B2, in the data set with AsCas12f1 [2], the binding result is recorded as “binds”.

For the origin of these results see article PMC11662939, “CRISPR-AsCas12f1 couples out-of-protospacer DNA unwinding with exonuclease activity in the sequential target cleavage”.
